The values that follow come from publication PMC5964235, “rbFOX1/MBNL1 competition for CCUG RNA repeats binding contributes to myotonic dystrophy type 1/type 2 differences”.

One series concerns the target T1, GST-rbFOX1 (UniProt Q9NWB1).
T1 sequence: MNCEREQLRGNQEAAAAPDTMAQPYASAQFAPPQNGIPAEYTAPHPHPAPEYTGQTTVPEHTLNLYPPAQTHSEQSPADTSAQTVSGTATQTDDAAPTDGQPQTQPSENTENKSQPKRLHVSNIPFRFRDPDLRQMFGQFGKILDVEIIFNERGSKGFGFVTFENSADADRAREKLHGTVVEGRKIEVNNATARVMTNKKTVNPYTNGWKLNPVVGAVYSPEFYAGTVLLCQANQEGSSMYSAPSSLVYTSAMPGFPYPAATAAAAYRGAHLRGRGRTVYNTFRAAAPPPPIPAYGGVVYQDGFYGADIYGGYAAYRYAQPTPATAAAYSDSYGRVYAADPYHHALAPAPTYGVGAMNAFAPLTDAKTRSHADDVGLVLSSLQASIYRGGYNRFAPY
The series can be described thus: EMSA. Particulars: apparent KD; EMSA: 50 mM Tris-HCl pH 7.0, 75 mM NaCl, 37.5 mM KCl, 0.75 mM MgCl2, 5.25 mM DTT, 0.1 mg/mL BSA, 0.1 mg/mL bulk tRNA, 0.4 U/uL RNAsin, 20 min on ice, 10 pM …. A general note: In EMSA bound probe runs differently from free probe, usually more slowly.

The target in another series is T2, rbFOX1 RRM (UniProt Q9NWB1 117-193).
T2 sequence: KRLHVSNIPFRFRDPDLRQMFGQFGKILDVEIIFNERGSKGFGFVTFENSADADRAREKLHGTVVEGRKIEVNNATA
The series can be described thus: NMR; 15N-1H HSQC; EMSA: 50 mM Tris-HCl pH 7.0, 75 mM NaCl, 37.5 mM KCl, 0.75 mM MgCl2, 5.25 mM DTT, 0.1 mg/mL BSA, 0.1 mg/mL bulk tRNA, 0.4 U/uL RNAsin, 20 min on ice, 10 pM RNA; gel at 4 C. Particulars: protein: recombinant.

“GGGAGACCCAAGCUGGCUAGCGUUUAAACUUAAGCUUCCUGCCUGCCUGCCUGCCUGCCUGCCUGCCUGCCUGCCUGCCUGCCUGCCUGCCUGCCUGCCUGCCUGCCUGCCUGCCUGCCUGCCUGCCUGCCUGCCUGCCUGCCUGCCUGCCUGCCUGCCUGCCUGCCUGCCUGCCUGCCUGCCUGCCUGCCUGCCUGCCUGCCUGCCUGCCUGCCUGCCUGCCUGCCUGCCUGCCUGCCUGCCUGCCUGCCUGCCUGCCUGCCUGCCUGCCUGCCUGCCUGCCUGCCUGCCUGCCUGCCUGCCUGCCUGCCUGCCUGCCUGCCUGCCUGCCUGCCUGCCUGCCUGCCUGCCUGCCUGCCUGCCUGCCUGCCUGCCUGCCUGCCUGCCUGCCUGCCUGCCUGCCUGCCUGCCUGCCUGCCUGCCUGCCUGCCUGCCUGG [(CCUG)100]”: in the series with GST-rbFOX1, the Kd was 3.2 nM.

With “GGGAGACCCAAGCUGGCUAGCGUUUAAACUUAAGCUUCCUGCCUGCCUGCCUGCCUGCCUGCCUGCCUGCCUGCCUGCCUGCCUGCCUGCCUGCCUGCCUGCCUGCCUGCCUGCCUGCCUGCCUGCCUGCCUGCCUGCCUGCCUGCCUGCCUGCCUGG [(CCUG)30]”, the Kd with GST-rbFOX1 was determined as 6.3 nM. The same measure, in the same setting: the same measure for “GGGAGACCCAAGCUGGCUAGCGUUUAAACUUAAGCUUCCUGCCUGCCUGCCUGCCUGCCUGCCUGCCUGCCUGCCUGG [(CCUG)10]”: 9.7 nM.

For the molecule UGCAUGU (ssRNA) [UGCAUGU (NMR)], the binding result with rbFOX1 RRM is listed as “binds”. On the same count and under the same terms, the same measure for UGCCUGC (ssRNA) [UGCCUGC (NMR)]: “binds”.
